Laboratory results as given in PMC2756588.

T1: Boi1, P38041
T1 sequence (P38041 1-86, looked up): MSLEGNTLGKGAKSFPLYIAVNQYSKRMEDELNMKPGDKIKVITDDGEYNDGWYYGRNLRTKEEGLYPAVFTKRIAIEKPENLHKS

T2: Cdc25, P04821
T2 sequence (P04821 50-136, looked up): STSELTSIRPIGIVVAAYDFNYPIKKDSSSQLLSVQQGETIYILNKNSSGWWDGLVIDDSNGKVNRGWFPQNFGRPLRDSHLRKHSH

T3: Fus1, P11710
T3 sequence (P11710 432-512, looked up): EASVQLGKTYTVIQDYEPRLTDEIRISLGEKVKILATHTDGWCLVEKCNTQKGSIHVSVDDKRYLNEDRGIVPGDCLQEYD

T4: Bzz1-1, P38822
T4 sequence (P38822 478-572, looked up): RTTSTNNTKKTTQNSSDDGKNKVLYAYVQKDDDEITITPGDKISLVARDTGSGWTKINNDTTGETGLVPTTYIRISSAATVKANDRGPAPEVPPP

T5: Sla1-3, P32790
T5 sequence (P32790 344-424, looked up): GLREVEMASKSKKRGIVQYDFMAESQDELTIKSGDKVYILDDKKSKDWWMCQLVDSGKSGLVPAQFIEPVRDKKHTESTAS

T6: Lsb4, P32793
T6 sequence (P32793 402-468, looked up): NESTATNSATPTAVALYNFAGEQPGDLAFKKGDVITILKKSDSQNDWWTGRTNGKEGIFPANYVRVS

T7: Bzz1-2, P38822
T7 sequence (P38822 568-633, looked up): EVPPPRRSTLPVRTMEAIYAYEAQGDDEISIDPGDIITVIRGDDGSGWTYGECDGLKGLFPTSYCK

T8: Boi2, P39969
T8 sequence (P39969 32-116, looked up): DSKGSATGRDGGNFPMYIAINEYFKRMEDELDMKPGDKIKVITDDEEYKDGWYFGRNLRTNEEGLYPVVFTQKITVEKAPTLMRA

T9: Cyk3, Q07533
T9 sequence (Q07533 1-83, looked up): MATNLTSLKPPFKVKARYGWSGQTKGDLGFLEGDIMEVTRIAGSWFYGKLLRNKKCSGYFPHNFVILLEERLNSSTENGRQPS

T10: Pex13, P80667
T10 sequence (P80667 295-386, looked up): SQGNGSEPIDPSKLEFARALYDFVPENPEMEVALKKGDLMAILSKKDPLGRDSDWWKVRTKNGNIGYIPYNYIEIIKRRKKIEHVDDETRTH

T11: Bud14, P27637
T11 sequence (P27637 247-328, looked up): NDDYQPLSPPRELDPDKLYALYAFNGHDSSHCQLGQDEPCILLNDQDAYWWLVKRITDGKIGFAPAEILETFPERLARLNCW

T12: Sla1-2, P32790
T12 sequence (P32790 60-140, looked up): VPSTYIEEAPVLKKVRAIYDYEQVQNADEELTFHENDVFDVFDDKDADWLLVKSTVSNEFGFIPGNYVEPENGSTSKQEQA

T13: Lsb3, P43603
T13 sequence (P43603 385-451, looked up): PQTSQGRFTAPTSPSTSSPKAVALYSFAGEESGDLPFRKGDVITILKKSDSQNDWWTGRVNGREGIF

T14: Nbp2, Q12163
T14 sequence (Q12163 103-180, looked up): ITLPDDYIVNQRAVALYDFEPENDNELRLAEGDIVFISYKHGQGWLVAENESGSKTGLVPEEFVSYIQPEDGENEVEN

T15: Pin3, Q06449
T15 sequence (Q06449 53-122, looked up): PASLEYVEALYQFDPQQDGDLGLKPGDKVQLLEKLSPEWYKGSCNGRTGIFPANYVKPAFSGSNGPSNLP

T16: Abp1, P15891
T16 sequence (P15891 535-592, looked up): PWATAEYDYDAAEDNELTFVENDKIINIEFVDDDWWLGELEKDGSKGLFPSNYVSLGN

T17: Bbc1, P47068
T17 sequence (P47068 1-78, looked up): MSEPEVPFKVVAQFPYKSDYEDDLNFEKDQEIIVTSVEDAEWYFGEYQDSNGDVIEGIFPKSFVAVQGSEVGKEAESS

T18: Myo5, Q04439
T18 sequence (Q04439 1072-1160, looked up): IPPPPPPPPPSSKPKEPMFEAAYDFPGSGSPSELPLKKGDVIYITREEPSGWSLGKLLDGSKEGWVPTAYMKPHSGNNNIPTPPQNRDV

T19: Lsb1, P53281
T19 sequence (P53281 45-122, looked up): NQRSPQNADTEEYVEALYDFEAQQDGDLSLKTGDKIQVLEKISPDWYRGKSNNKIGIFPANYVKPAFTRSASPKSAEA

T20: Hof1, Q05080
T20 sequence (Q05080 590-669, looked up): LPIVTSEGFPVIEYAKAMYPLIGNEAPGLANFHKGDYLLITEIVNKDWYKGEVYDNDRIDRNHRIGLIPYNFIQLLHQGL

T21: Hse1, P38753
T21 sequence (P38753 208-285, looked up): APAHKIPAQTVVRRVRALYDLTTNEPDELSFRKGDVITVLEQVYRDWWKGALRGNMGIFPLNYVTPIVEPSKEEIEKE


Tests used:
Assay in all cases: SPOT array
Boi1, P38041 = molecular target: T1, Boi1, P38041; details: median of control spots 1162
Cdc25, P04821 = molecular target: T2, Cdc25, P04821; details: median of control spots 969
Fus1, P11710 = molecular target: T3, Fus1, P11710; details: median of control spots 1200
Myo3, P36006 = details: median of control spots 468
Sho1, P40073 = details: median of control spots 1148
Bzz1-1, P38822 = molecular target: T4, Bzz1-1, P38822; details: median of control spots 4446
Sla1-3, P32790 = molecular target: T5, Sla1-3, P32790; details: median of control spots 5475
Lsb4, P32793 = molecular target: T6, Lsb4, P32793; details: median of control spots 397
Bzz1-2, P38822 = molecular target: T7, Bzz1-2, P38822; details: median of control spots 4538
Boi2, P39969 = molecular target: T8, Boi2, P39969; details: median of control spots 1161
Bem1-2, P29366 = details: median of control spots 4347
Cyk3, Q07533 = molecular target: T9, Cyk3, Q07533; details: median of control spots 1451
Bem1-1, P29366 = details: median of control spots 4282
Pex13, P80667 = molecular target: T10, Pex13, P80667; details: median of control spots 1341
Bud14, P27637 = molecular target: T11, Bud14, P27637; details: median of control spots 956
Sla1-2, P32790 = molecular target: T12, Sla1-2, P32790; details: median of control spots 712
Lsb3, P43603 = molecular target: T13, Lsb3, P43603; details: median of control spots 406
Rvs167, P39743 = details: median of control spots 2707
Nbp2, Q12163 = molecular target: T14, Nbp2, Q12163; details: median of control spots 357
Pin3, Q06449 = molecular target: T15, Pin3, Q06449; details: median of control spots 2171
Abp1, P15891 = molecular target: T16, Abp1, P15891; details: median of control spots 935
Bbc1, P47068 = molecular target: T17, Bbc1, P47068; details: median of control spots 796
Myo5, Q04439 = molecular target: T18, Myo5, Q04439; details: median of control spots 471
GST = details: median of control spots 978
Lsb1, P53281 = molecular target: T19, Lsb1, P53281; details: median of control spots 388
Hof1, Q05080 = molecular target: T20, Hof1, Q05080; details: median of control spots 4086
Hse1, P38753 = molecular target: T21, Hse1, P38753; details: median of control spots 1727

Chain of Bem1-2, P29366 (P29366 139-227): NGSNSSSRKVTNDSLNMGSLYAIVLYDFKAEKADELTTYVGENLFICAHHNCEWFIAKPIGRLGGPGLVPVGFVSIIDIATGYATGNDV
Chain of Bem1-1, P29366 (P29366 55-141): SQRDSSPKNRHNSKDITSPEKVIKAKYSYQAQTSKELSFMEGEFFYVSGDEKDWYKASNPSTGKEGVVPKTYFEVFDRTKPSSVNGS
Chain of Rvs167, P39743 (P39743 419-482): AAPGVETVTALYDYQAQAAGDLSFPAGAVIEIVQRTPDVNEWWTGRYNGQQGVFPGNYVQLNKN
Chain of Sho1, P40073 (P40073 287-367): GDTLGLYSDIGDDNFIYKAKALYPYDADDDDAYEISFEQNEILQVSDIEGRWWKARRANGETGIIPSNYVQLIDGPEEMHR

Row | Binder | SPOT intensity (Boi1, P38041) | SPOT intensity (Cdc25, P04821) | SPOT intensity (Fus1, P11710) | SPOT intensity (Myo3, P36006) | SPOT intensity (Sho1, P40073) | SPOT intensity (Bzz1-1, P38822) | SPOT intensity (Sla1-3, P32790) | SPOT intensity (Lsb4, P32793) | SPOT intensity (Bzz1-2, P38822) | SPOT intensity (Boi2, P39969) | SPOT intensity (Bem1-2, P29366) | SPOT intensity (Cyk3, Q07533) | SPOT intensity (Bem1-1, P29366) | SPOT intensity (Pex13, P80667) | SPOT intensity (Bud14, P27637) | SPOT intensity (Sla1-2, P32790) | SPOT intensity (Lsb3, P43603) | SPOT intensity (Rvs167, P39743) | SPOT intensity (Nbp2, Q12163) | SPOT intensity (Pin3, Q06449) | further results
1 | NLDRSKISLPDFDDE | 7 | 35 | 4 | 1 | 16 | 3 | 2 | 5 | 3 | 2 | 0 | 4 | 3 | 3 | 20 | 1 | 0 | 6 | 6 | 8 | SPOT intensity (Abp1, P15891): 23; SPOT intensity (Bbc1, P47068): 15; SPOT intensity (Myo5, Q04439): 0; SPOT intensity (GST): 36; SPOT intensity (Lsb1, P53281): 84; SPOT intensity (Hof1, Q05080): 8; SPOT intensity (Hse1, P38753): 3
2 | MARRRLPDRPPNGIG | 0 | 14 | 0 | 15 | 393 | 0 | 36 | 533 | 160 | 0 | 78 | 0 | 0 | 99 | 4 | 1 | 175 | 1590 | 3 | 91 | SPOT intensity (Abp1, P15891): 113; SPOT intensity (Bbc1, P47068): 69; SPOT intensity (Myo5, Q04439): 5; SPOT intensity (GST): 0; SPOT intensity (Lsb1, P53281): 587; SPOT intensity (Hof1, Q05080): 130; SPOT intensity (Hse1, P38753): 126
3 | DAPASKPSVPPRNYF | 0 | 0 | 0 | 0 | 0 | 0 | 12 | 231 | 0 | 0 | 0 | 1 | 0 | 91 | 0 | 0 | 125 | 58 | 2 | 23 | SPOT intensity (Abp1, P15891): 17; SPOT intensity (Bbc1, P47068): 6; SPOT intensity (Myo5, Q04439): 0; SPOT intensity (GST): 0; SPOT intensity (Lsb1, P53281): 1310; SPOT intensity (Hof1, Q05080): 0; SPOT intensity (Hse1, P38753): 0
4 | GAGERPRLVPRPINV | 3 | 18 | 0 | 0 | 4 | 1 | 0 | 105 | 0 | 0 | 1 | 3 | 3 | 24 | 0 | 1 | 60 | 4 | 2 | 5 | SPOT intensity (Abp1, P15891): 9; SPOT intensity (Bbc1, P47068): 30; SPOT intensity (Myo5, Q04439): 1; SPOT intensity (GST): 0; SPOT intensity (Lsb1, P53281): 18; SPOT intensity (Hof1, Q05080): 11; SPOT intensity (Hse1, P38753): 7
